In article PMC5066845:
pKd: −log10 of the molar value. Values belong to the substance of their own block, whether it stands above or below them.

Tests used:
[1] = molecular target: F-actin polymerised on a streptavidin biosensor from biotinylated and non-biotinylated G-actin (1:4) (rabbit | human) (UniProt P68135); test: BLI
[2] = molecular target: mouse DNGR-1 extracellular domain (ECD), wild type (mouse); test: BLI

Substance: mouse DNGR-1 ECD W155A W250A (domain or fragment)
pKd [1]: < 4.00

Substance: short F-actin filaments capped and stabilized with gelsolin (from UniProt P60709;P06396) (complex)
pKd [2]: 8.06
koff [2]: 6.4e-05 s⁻¹
kon [2]: 7600 M⁻¹ s⁻¹

More lines, now with the values ahead:

pKd [1]: < 4.30
Substance: mouse DNGR-1 ECD K251A (domain or fragment)

pKd [1]: 5.57
Substance: mouse DNGR-1 ECD N140A Y150A (domain or fragment)

pKd [1]: 5.80
koff [1]: 0.848 s⁻¹
kon [1]: 1.5e+06 M⁻¹ s⁻¹
Substance: mouse DNGR-1 extracellular domain (ECD), wild type (domain or fragment)
